Data from ChEMBL document CHEMBL1146311, “Carbonic anhydrase activators: L-Adrenaline plugs the active site entrance of isozyme II, activating better isoforms I, IV, VA, VII, and XIV” (Bioorg Med Chem Lett, 2007).

Tests used:
Conditions in all cases: Homo sapiens; 10 uM
[1] = substrate: CNC[C@H](O)c1ccc(O)c(O)c1
Description: (§1) Activity of human recombinant CA5A at 10 uM by stopped-flow technique

[2] = substrate: NCCc1c[nH]cn1
Description: as §1

[3] = substrate: CNC[C@H](O)c1ccc(O)c(O)c1; remark: listed apart in the source
Description: (§2) Activity of human recombinant CA14 at 10 uM by stopped-flow technique

[4] = substrate: NCCc1c[nH]cn1; remark: listed apart in the source
Description: as §2

[5] = substrate: CNC[C@H](O)c1ccc(O)c(O)c1; remark: listed apart in the source
Description: (§3) Activity of human recombinant CA7 at 10 uM by stopped-flow technique

[6] = substrate: NCCc1c[nH]cn1; remark: listed apart in the source
Description: as §3

[7] = substrate: CNC[C@H](O)c1ccc(O)c(O)c1; remark: listed apart in the source
Description: (§4) Activity of human recombinant CA4 at 10 uM by stopped-flow technique

[8] = substrate: NCCc1c[nH]cn1; remark: listed apart in the source
Description: as §4

B1: Carbonic anhydrase 5A, mitochondrial (Homo sapiens), P35218 (protein)
chain: MLGRNTWKTSAFSFLVEQMWAPLWSRSMRPGRWCSQRSCAWQTSNNTLHPLWTVPVSVPGGTRQSPINIQWRDSVYDPQLKPLRVSYEAASCLYIWNTGYLFQVEFDDATEASGISGGPLENHYRLKQFHFHWGAVNEGGSEHTVDGHAYPAELHLVHWNSVKYQNYKEAVVGENGLAVIGVFLKLGAHHQTLQRLVDILPEIKHKDARAAMRPFDPSTLLPTCWDYWTYAGSLTTPPLTESVTWIIQKEPVEVAPSQLSAFRTLLFSALGEEEKMMVNNYRPLQPLMNRKVWASFQATNEGTRS
kcat [1]: 3.9 10^5/s
kcat [2]: 8.6 10^5/s

B2: Carbonic anhydrase 14 (Homo sapiens), Q9ULX7 (protein)
chain: MLFSALLLEVIWILAADGGQHWTYEGPHGQDHWPASYPECGNNAQSPIDIQTDSVTFDPDLPALQPHGYDQPGTEPLDLHNNGHTVQLSLPSTLYLGGLPRKYVAAQLHLHWGQKGSPGGSEHQINSEATFAELHIVHYDSDSYDSLSEAAERPQGLAVLGILIEVGETKNIAYEHILSHLHEVRHKDQKTSVPPFNLRELLPKQLGQYFRYNGSLTTPPCYQSVLWTVFYRRSQISMEQLEKLQGTLFSTEEEPSKLLVQNYRALQPLNQRMVFASFIQAGSSYTTGEMLSLGVGILVGCLCLLLAVYFIARKIRKKRLENRKSVVFTSAQATTEA
kcat [3]: 4.5 10^5/s
kcat [4]: 10 10^5/s

B3: Carbonic anhydrase 7 (Homo sapiens), P43166 (protein)
chain: MTGHHGWGYGQDDGPSHWHKLYPIAQGDRQSPINIISSQAVYSPSLQPLELSYEACMSLSITNNGHSVQVDFNDSDDRTVVTGGPLEGPYRLKQFHFHWGKKHDVGSEHTVDGKSFPSELHLVHWNAKKYSTFGEAASAPDGLAVVGVFLETGDEHPSMNRLTDALYMVRFKGTKAQFSCFNPKCLLPASRHYWTYPGSLTTPPLSESVTWIVLREPICISERQMGKFRSLLFTSEDDERIHMVNNFRPPQPLKGRVVKASFRA
kcat [5]: 10.4 10^5/s
kcat [6]: 15.2 10^5/s

B4: Carbonic anhydrase 4 (Homo sapiens), P22748 (protein)
chain: MRMLLALLALSAARPSASAESHWCYEVQAESSNYPCLVPVKWGGNCQKDRQSPINIVTTKAKVDKKLGRFFFSGYDKKQTWTVQNNGHSVMMLLENKASISGGGLPAPYQAKQLHLHWSDLPYKGSEHSLDGEHFAMEMHIVHEKEKGTSRNVKEAQDPEDEIAVLAFLVEAGTQVNEGFQPLVEALSNIPKPEMSTTMAESSLLDLLPKEEKLRHYFRYLGSLTTPTCDEKVVWTVFREPIQLHREQILAFSQKLYYDKEQTVSMKDNVRPLQQLGQRTVIKSGAPGRPLPWALPALLGPMLACLLAGFLR
kcat [7]: 2.9 10^6/s
kcat [8]: 3.5 10^6/s
